# Assay results published in US20130071921A1 (Pfizer, published 2013).
# T1: recombinant mouse Dkk-2 (R&D systems Cat No. 2435-DK/CF) (mouse, UniProt Q9QYZ8 34-259, limits assumed)
# T1 construct: Bought; also called mDkk-2
# T1 sequence (looked up): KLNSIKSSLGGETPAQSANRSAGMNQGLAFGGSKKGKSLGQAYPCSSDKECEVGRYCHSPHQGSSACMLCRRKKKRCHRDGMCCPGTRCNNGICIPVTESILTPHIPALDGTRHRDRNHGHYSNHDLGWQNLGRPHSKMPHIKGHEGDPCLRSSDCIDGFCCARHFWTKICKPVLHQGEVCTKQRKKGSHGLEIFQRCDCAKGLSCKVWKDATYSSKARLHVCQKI
# T2: recombinant mouse Dkk-1 (R&D systems Cat No. 1765-DK/CF) (mouse, UniProt O54908 32-272)
# T2 construct: Bought
# T2 sequence (looked up): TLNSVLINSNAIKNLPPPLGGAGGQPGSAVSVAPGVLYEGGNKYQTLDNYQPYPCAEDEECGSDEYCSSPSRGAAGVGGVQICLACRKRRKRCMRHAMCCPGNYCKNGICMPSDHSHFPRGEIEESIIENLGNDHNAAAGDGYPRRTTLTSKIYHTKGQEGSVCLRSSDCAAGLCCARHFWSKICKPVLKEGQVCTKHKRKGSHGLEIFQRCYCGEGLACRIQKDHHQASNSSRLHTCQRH
# T3: Recombinant human Dkk-1 (R&D Systems cat no. 1096-DK/CF), 10xHis tag at the C terminal (human, UniProt O94907 32-266)
# T3 construct: the actual N-terminus of the purified protein is marked in bold italic after residue 30, but the mark is an image lost in the text; also called rhuDkk-1; hDkk-1
# T3 sequence: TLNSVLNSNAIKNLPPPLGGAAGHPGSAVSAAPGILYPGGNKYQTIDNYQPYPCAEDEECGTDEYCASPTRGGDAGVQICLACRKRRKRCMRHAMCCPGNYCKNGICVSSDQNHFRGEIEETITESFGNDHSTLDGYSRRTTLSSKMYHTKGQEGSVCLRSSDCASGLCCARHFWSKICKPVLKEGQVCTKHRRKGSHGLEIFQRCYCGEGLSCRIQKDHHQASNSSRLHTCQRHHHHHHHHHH
# Assays:
# [1] = molecular target: T1, recombinant mouse Dkk-2 (R&D systems …); experiment: ELISA, plate-coated antigen
# Description: Dkk-1 specific antibodies were detected using the following ELISA based method. rhuDkk-1 protein (R&D systems cat no. 1096 DK/CF) was diluted to 1 ug/ml in coating buffer (Sigma carbonate/bicarbonate coating buffer pH 9.6 Cat No. C-3041 made up according to manufacturers instructions). 100 uls of Dkk-1 was added per well to Nunc Maxisorp 96 well plates and incubated overnight at 4° C. Wells were washed 4× with 250 uls/well of wash buffer (0.05% (v/v) Tween-20 (Sigma Cat no. P2287) in dPBS without Ca/Mg++ (Sigma Cat No. D8537)) then blocked with 200 uls/well of blocking buffer (1% PVA (Sigma cat no. 363170) (weight/volume) in dPBS (Sigma cat no.D8537)) for 2 hrs at room temperature. Blocking buffer was then removed by rapid decanting. […]
# (§1) Binding of the test antibody to Dkk was determined by addition of a secondary antibody specific for the antibody species. […] Once developed, the plate absorbance was measured at 405 and 490 nm. Absorbance values were presented as the difference between absorbance at both wavelengths.
# The ability of JC18 to bind to other species Dkk proteins was assessed using the ELISA protocol described above with the exception that plates were also coated with recombinant rat Dkk-1(R&D systems Cat No. 4010-DK/CF), mouse Dkk-1 (R&D systems Cat No. 1765-DK/CF), mouse Dkk-2 (R&D systems Cat No. 2435-DK/CF), and mouse Dkk-4 (R&D systems Cat No. 3105-DK/CF).
# [2] = molecular target: T2, recombinant mouse Dkk-1 (R&D systems …); experiment: SPR BIAcore 25C, JC18 captured by anti-mouse IgG, Dkk-1 injected
# Description: (§2) For this assay, polyclonal anti-mouse IgG was amine-coupled to the BIAcore chip. Anti-Dkk-1 antibody JC18 is at 6.53 μg/ml, and was captured for 1 min at 5 μl/min. A five-fold series dilution of human, mouse or rat Dkk-1 (R&D Systems; from 0.4-250 nM) was injected for 1 min at 50-100 μl/min. Dissociation was monitored for 3-5 min. The chip was regenerated with two 30-sec pulses of 100 mM H₃PO₄.
# [3] = molecular target: T4, recombinant rat Dkk-1 (R&D systems Cat No. 4010-DK/CF) (rat); experiment: as above
# T4 construct: Bought
# Description: as §2
# [4] = molecular target: T3, Recombinant human Dkk-1 (R&D Systems …); experiment: as above
# Description: as §2
# [5] = molecular target: T3, Recombinant human Dkk-1 (R&D Systems …); experiment: ELISA, plate coated with human DKK-1 at 1.0 ug/ml, JC18 titrated, OD read
# Description: Dkk-1 specific antibodies were detected using the following ELISA based method. rhuDkk-1 protein (R&D systems cat no. 1096 DK/CF) was diluted to 1 ug/ml in coating buffer (Sigma carbonate/bicarbonate coating buffer pH 9.6 Cat No. C-3041 made up according to manufacturers instructions). 100 uls of Dkk-1 was added per well to Nunc Maxisorp 96 well plates and incubated overnight at 4° C. Wells were washed 4× with 250 uls/well of wash buffer (0.05% (v/v) Tween-20 (Sigma Cat no. P2287) in dPBS without Ca/Mg++ (Sigma Cat No. D8537)) then blocked with 200 uls/well of blocking buffer (1% PVA (Sigma cat no. 363170) (weight/volume) in dPBS (Sigma cat no.D8537)) for 2 hrs at room temperature. Blocking buffer was then removed by rapid decanting. Antibodies were diluted by consecutive 2-fold serial dilutions in blocking buffer and applied to each plate at 100 ul per well. Plates were incubated for 1 hour at RT and then washed as described above.
# as §1
# [6] = molecular target: T5, recombinant human Dkk3 (R&D systems Cat No. 1118-DK/CF) (human, UniProt Q9UBP4 22-350); experiment: ELISA, plate coated with human DKK-3 at 1.0 ug/ml, JC18 titrated, OD read
# T5 construct: Bought; also called hDkk-3
# T5 sequence (Q9UBP4 22-350 limits assumed): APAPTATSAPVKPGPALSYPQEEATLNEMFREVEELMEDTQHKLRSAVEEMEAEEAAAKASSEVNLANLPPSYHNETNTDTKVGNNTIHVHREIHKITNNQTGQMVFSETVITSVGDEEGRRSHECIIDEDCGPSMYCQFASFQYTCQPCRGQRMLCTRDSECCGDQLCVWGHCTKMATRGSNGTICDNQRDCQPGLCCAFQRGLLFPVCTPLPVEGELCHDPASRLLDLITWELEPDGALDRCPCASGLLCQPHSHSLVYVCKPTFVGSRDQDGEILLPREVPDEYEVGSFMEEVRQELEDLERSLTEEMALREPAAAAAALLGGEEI
# [7] = molecular target: T3, Recombinant human Dkk-1 (R&D Systems …); experiment: SPR 37C (BIAcore/ProteOn), hDkk-1 series over captured IgG (taken so as kon is printed)
# [8] = molecular target: T3, Recombinant human Dkk-1 (R&D Systems …); experiment: theoretical: koff / estimated kon 1e6 1/Ms (SPR screening 37C)
# Method in brief: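 Fab variants in filtered E. coli lysates injected at 37 °C over biotinylated human Dkk-1 captured on streptavidin (BIAcore, ~500-600 RU, HBS-EP) or NeutrAvidin chips (ProteOn, 150-3000 RU, PBS/BSA/Tween-20). Dissociation followed 1-5 min or 20 min; KD taken as koff over an estimated kon of 1e6 1/Ms.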
# [9] = molecular target: T3, Recombinant human Dkk-1 (R&D Systems …); experiment: SPR screening 37C (BIAcore/ProteOn), Fab lysate over biotinylated human Dkk-1
# Method in brief: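 Fabs from filtered E. coli lysates injected at 37 °C over biotinylated human Dkk-1: BIAcore SA chip (~500–600 RU, HBS-EP, 1 min injection, 1–5 min dissociation) or ProteOn NLC chip (150–3000 RU, PBS/BSA/Tween-20, 50 s injection, 20 min dissociation). Binding level and off-rate screened.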
Binder,Kd [7],koff [7],kon [7],Kd [8],koff [9],further results
"JC18 wildtype (mouse) monoclonal antibody (antibody, mouse IgG1, V domains shown, also called muMabJC18; MabJC18) VH: EVKLVESGGGLVKPGGSLKLSCAASGFTFSNYAMSWVRQTPEKRLEWVASISGGGDTYYPDSVKGRFTISRDNVRNILYLQMSSLRSEDTAMYYCATSLENYAMDYWGQGTSITVSS VL: not shown",,,,,,binding result [1]: no binding (tested: 5 ug/ml); Kd [2]: 1500 pM; koff [2]: 0.00254 s⁻¹; kon [2]: 1.74e+06 M⁻¹ s⁻¹; Kd [3]: 720 pM; koff [3]: 0.00275 s⁻¹; kon [3]: 3.8e+06 M⁻¹ s⁻¹; Kd [4]: 650 pM; koff [4]: 0.00207 s⁻¹; kon [4]: 3.18e+06 M⁻¹ s⁻¹; EC50 (read off the curve) [5]: ~3 ng/mL; binding result [6]: no binding (tested: 5 ug/ml)
"4E8.33L (antibody, V domains shown) VH: EVQLVESGGGLVQPGGSLRLSCAASGFTFSSYAISWVRQAPGKGLEWVASVSGWLDTYYPDSVKGRFTISRDNAKNSLYLQMNSLRAEDTAVYYCATSLENYAFDYWGQGTTVTVSS VL: EIVLTQSPATLSLSPGERATLSCRASESVDDFGISFINWYQQKPGQAPRLLIYAGSKQGSGIPARFSGSGSGTDFTLTISSLEPEDFAVYYCQQLKEVPPTFGGGTKVEIK",8 pM,8.55e-05 s⁻¹,1.13e+07 M⁻¹ s⁻¹,,,
"2E11.33L (antibody, V domains shown) VH: EVQLVESGGGLVQPGGSLRLSCAASGFTFSSYAISWVRQAPGKGLEWVASVSGTGLGFQTYYPDSVKGRFTISRDNAKNSLYLQMNSLRAEDTAVYYCATSLRNYAFDYWGQGTTVTVSS VL: EIVLTQSPATLSLSPGERATLSCRASESVDDFGISFINWYQQKPGQAPRLLIYAGSKQGSGIPARFSGSGSGTDFTLTISSLEPEDFAVYYCQQLKEVPPTFGGGTKVEIK",30 pM,8.55e-05 s⁻¹,2.88e+06 M⁻¹ s⁻¹,,,
"L2.4E1 (Fab, V domains shown, G55# and L56# read as gaps; tested as Fab (E. coli lysate, screening mode); human kappa CL and IgG2 CH1 not included here) VH: EVQLVESGGGLVQPGGSLRLSCAASGFTFSSYAISWVRQAPGKGLEWVASVSGHGVWTYYPDSVKGRFTISRDNAKNSLYLQMNSLRAEDTAVYYCATSLENYAFDYWGQGTTVTVSS VL: EIVLTQSPATLSLSPGERATLSCRASESVDDFGISFMNWYQQKPGQAPRLLIYAASKQGSGIPARFSGSGSGTDFTLTISSLEPEDFAVYYCQQSKEVPPTFGGGTKVEIK",,,,5510 pM,0.00551 s⁻¹,
"L2.P4.D1 (Fab, V domains shown, tested as Fab (E. coli lysate, screening mode); human kappa CL and IgG2 CH1 not included here) VH: EVQLVESGGGLVQPGGSLRLSCAASGFTFSSYAISWVRQAPGKGLEWVASVSGTGLGFQTYYPDSVKGRFTISRDNAKNSLYLQMNSLRAEDTAVYYCATSLDNYAFDYWGQGTTVTVSS VL: EIVLTQSPATLSLSPGERATLSCRASESVDDFGISFMNWYQQKPGQAPRLLIYAASKQGSGIPARFSGSGSGTDFTLTISSLEPEDFAVYYCQQSKEVPPTFGGGTKVEIK",,,,2880 pM,0.00288 s⁻¹,
"SL3.4F5 (Fab, V domains shown, tested as Fab (E. coli lysate, screening mode); human kappa CL and IgG2 CH1 not included here) VH: EVQLVESGGGLVQPGGSLRLSCAASGFTFSSYAISWVRQAPGKGLEWVASVSGGGRTYYPDSVKGRFTISRDNAKNSLYLQMNSLRAEDTAVYYCATSLENYAFDYWGQGTTVTVSS VL: EIVLTQSPATLSLSPGERATLSCRASESVDDFGISFMNWYQQKPGQAPRLLIYAASKQGSGIPARFSGSGSGTDFTLTISSLEPEDFAVYYCQQGKEVPPTFGGGTKVEIK",,,,7800 pM,0.0078 s⁻¹,
"36H.33L (antibody, V domains shown) VH: EVQLVESGGGLVQPGGSLRLSCAASGFTFSSYAISWVRQAPGKGLEWVASVSGWFDTYYPDSVKGRFTISRDNAKNSLYLQMNSLRAEDTAVYYCATSLRNYAFDYWGQGTTVTVSS VL: EIVLTQSPATLSLSPGERATLSCRASESVDDFGISFINWYQQKPGQAPRLLIYAGSKQGSGIPARFSGSGSGTDFTLTISSLEPEDFAVYYCQQLKEVPPTFGGGTKVEIK",17 pM,8.55e-05 s⁻¹,5.18e+06 M⁻¹ s⁻¹,,,
"SL3.4F1 (Fab, V domains shown, tested as Fab (E. coli lysate, screening mode); human kappa CL and IgG2 CH1 not included here) VH: EVQLVESGGGLVQPGGSLRLSCAASGFTFSSYAISWVRQAPGKGLEWVASVSGGGRTYYPDSVKGRFTISRDNAKNSLYLQMNSLRAEDTAVYYCATSLENYAFDYWGQGTTVTVSS VL: EIVLTQSPATLSLSPGERATLSCRASESVDDFGISFMNWYQQKPGQAPRLLIYAASKQGSGIPARFSGSGSGTDFTLTISSLEPEDFAVYYCQQSKEVPSTFGGGTKVEIK",,,,16900 pM,0.0169 s⁻¹,
"4F10.33L (antibody, V domains shown) VH: EVQLVESGGGLVQPGGSLRLSCAASGFTFSSYAISWVRQAPGKGLEWVASVSGTGLGFQTYYPDSVKGRFTISRDNAKNSLYLQMNSLRAEDTAVYYCATSLKNYAFDYWGQGTTVTVSS VL: EIVLTQSPATLSLSPGERATLSCRASESVDDFGISFINWYQQKPGQAPRLLIYAGSKQGSGIPARFSGSGSGTDFTLTISSLEPEDFAVYYCQQLKEVPPTFGGGTKVEIK",37 pM,8.55e-05 s⁻¹,2.31e+06 M⁻¹ s⁻¹,,,
